Here are results for two molecules from patent US20220119534A1 (DRAGONFLY THERAPEUTICS, published 2022).

Several values for one entry are separate records, joined by “and”; a condition that tells them apart may be missing. Equal entries are not always repeated.

One assay has as its target T1, mFc-cNKG2D (cynomolgus monkey, UniProt P61252 73-216).
T1 construct: extracellular domain; Made in house (Dragonfly Tx); also called recombinant cyno NKG2D extracellular domain (ECD); mFc-tagged cyno NKG2D dimer; not shown: mouse Fc tag
T1 sequence (looked up): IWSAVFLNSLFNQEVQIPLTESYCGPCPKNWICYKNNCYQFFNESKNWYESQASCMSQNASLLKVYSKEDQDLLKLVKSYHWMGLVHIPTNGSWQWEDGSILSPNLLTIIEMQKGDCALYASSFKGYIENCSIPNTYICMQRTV
As to the kind of experiment: SPR Biacore 37 C; mFc-tagged cyno NKG2D dimer, TriNKET as analyte; steady state affinity fit. A general note: SPR reads the build-up and loss of mass on a sensor chip optically.

Assay [1] addresses T2, mFc-hNKG2D (human, UniProt P26718 73-216).
T2 construct: extracellular domain; Made in house (Dragonfly Tx); the order of tag and ECD follows the name mFc-hNKG2D; also called mFc-tagged human NKG2D; not shown: mouse Fc tag
T2 sequence (looked up): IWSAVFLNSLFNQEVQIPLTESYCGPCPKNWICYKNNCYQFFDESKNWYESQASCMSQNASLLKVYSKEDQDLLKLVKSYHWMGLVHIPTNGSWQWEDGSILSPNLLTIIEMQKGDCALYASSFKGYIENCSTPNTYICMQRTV
As to the kind of experiment: SPR Biacore 8K 37 C; mFc-hNKG2D captured on anti-mFc chip, TriNKET as analyte; 1:1 kinetic fit; control sample, n=2.

The target of a further assay is T3, De-glycosylated CLEC12A (human, UniProt Q5QGZ9 65-265, treated with PNGase F (N-linked glycans removed)).
T3 construct: Recombinant human CLEC12A after PNGase F; also called de-glycosylated hCLEC12A
T3 sequence: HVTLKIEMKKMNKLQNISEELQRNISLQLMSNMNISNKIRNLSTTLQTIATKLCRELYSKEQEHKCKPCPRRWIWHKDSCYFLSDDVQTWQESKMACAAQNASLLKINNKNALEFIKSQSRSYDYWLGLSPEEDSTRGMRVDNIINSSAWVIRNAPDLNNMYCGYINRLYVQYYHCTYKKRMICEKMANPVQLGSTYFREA
As to the kind of experiment: SPR, de-glycosylated CLEC12A; average of 3 replicates.

The target in the next assay is T4, Human CD16a V158 (human, UniProt P08637 17-208, biotinylated).
T4 construct: Bought recombinant receptor; also called hCD16a (V158); hFcγRIIIa V158
As to the kind of experiment: SPR; sample after forced oxidation (0.02% H2O2, 24 h).

Assay [2] addresses T5, mFc-hNKG2D (human, UniProt P26718 73-216).
T5 construct: extracellular domain; Recombinant mFc-tagged NKG2D dimer, made in house; also called human NKG2D; not shown: mouse Fc tag
T5 sequence (looked up): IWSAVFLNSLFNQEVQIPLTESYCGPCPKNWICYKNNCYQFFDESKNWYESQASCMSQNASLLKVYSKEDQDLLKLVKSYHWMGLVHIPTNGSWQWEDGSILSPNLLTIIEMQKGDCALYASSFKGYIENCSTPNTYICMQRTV
The description is as above.

The target in a further assay is T6, Human CD32a R131 (human, UniProt P12318 36-218, limits assumed, biotinylated).
T6 construct: Bought recombinant receptor; also called hFcγRIIa R131
T6 sequence (looked up): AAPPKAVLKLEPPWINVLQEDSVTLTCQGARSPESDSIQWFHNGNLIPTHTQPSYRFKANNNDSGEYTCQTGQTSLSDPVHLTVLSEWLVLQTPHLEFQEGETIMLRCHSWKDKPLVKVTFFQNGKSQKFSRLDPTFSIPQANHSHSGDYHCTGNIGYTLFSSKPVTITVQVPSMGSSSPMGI
As to the kind of experiment: SPR, steady state fit.

The next assay deals with T7, Human CD32a H131 (human, UniProt P12318 36-218, limits assumed, biotinylated).
T7 construct: Bought recombinant receptor; also called hFcγRIIa H131
T7 sequence (looked up): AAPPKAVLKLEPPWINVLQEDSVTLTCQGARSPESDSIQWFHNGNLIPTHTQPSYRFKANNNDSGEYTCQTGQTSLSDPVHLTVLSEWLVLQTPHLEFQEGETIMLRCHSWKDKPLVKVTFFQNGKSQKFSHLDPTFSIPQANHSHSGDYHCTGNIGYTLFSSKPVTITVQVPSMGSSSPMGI
As to the kind of experiment: SPR, steady state fit.

For assay [3], the target named is T5, mFc-hNKG2D. As to the kind of experiment: SPR, 37 C, mFc-hNKG2D captured, steady state fit.
Description: NKG2D is a dimer in nature, therefore recombinant mFc-tagged NKG2D dimer was used for this experiment. […] Two different fits were utilized to obtain the equilibrium affinity data: steady state affinity fit and kinetic fit.

T4 sequence (P08637 17-208 F176V limits assumed): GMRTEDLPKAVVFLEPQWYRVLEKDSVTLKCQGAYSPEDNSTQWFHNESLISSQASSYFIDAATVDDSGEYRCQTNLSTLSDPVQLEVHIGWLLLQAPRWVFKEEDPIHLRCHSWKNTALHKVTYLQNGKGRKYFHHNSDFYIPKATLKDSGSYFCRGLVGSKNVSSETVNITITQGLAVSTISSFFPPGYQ

B1: F3'-1602 TriNKET (bispecific antibody, human IgG1, kappa)
chain: QLQLQESGPGLVKPSETLSLTCTVSGFSLTNYGLHWIRQPPGKCLEWIGVIWSGGKTDYNPSLKSRVTISKDTSKNQFSLKLSSVQAADTAVYYCAKYDYDDSLDYWGQGTLVTVSSGGGGSGGGGSGGGGSGGGGSDIQMTQSPSSLSASVGDRVTITCHASQNINFWLSWYQQKPGKAPKLLIYEASNLHTGVPSRFSGSGSGTRFTLTISSLQPEDIATYYCQQSHSYPLTFGCGTKLEIKGSDKTHTCPPCPAPELLGGPSVFLFPPKPKDTLMISRTPEVTCVVVDVSHEDPEVKFNWYVDGVEVHNAKTKPREEQYNSTYRVVSVLTVLHQDWLNGKEYKCKVSNKALPAPIEKTISKAKGQPREPRVYTLPPCRDELTKNQVSLTCLVKGFYPSDIAVEWESNGQPENNYKTTPPVLVSDGSFTLYSKLTVDKSRWQQGNVFSCSVMHEALHNHYTQKSLSLSPG
heavy: EVQLVESGGGLVKPGGSLRLSCAASGFTFSSYSMNWVRQAPGKGLEWVSSISSSSSYIYYADSVKGRFTISRDNAKNSLYLQMNSLRAEDTAVYYCARGAPIGAAAGWFDPWGQGTLVTVSSASTKGPSVFPLAPSSKSTSGGTAALGCLVKDYFPEPVTVSWNSGALTSGVHTFPAVLQSSGLYSLSSVVTVPSSSLGTQTYICNVNHKPSNTKVDKKVEPKSCDKTHTCPPCPAPELLGGPSVFLFPPKPKDTLMISRTPEVTCVVVDVSHEDPEVKFNWYVDGVEVHNAKTKPREEQYNSTYRVVSVLTVLHQDWLNGKEYKCKVSNKALPAPIEKTISKAKGQPREPQVCTLPPSRDELTENQVSLTCLVKGFYPSDIAVEWESNGQPENNYKTTPPVLDSDGSFFLYSWLTVDKSRWQQGNVFSCSVMHEALHNHYTQKSLSLSPG
light: DIQMTQSPSSVSASVGDRVTITCRASQGISSWLAWYQQKPGKAPKLLIYAASSLQSGVPSRFSGSGSGTDFTLTISSLQPEDFATYYCQQGVSFPRTFGGGTKVEIKRTVAAPSVFIFPPSDEQLKSGTASVVCLLNNFYPREAKVQWKVDNALQSGNSQESVTEQDSKDSTYSLSSTLTLSKADYEKHKVYACEVTHQGLSSPVTKSFNRGEC
notes: Trispecific F3' format: CLEC12A scFv-Fc paired with NKG2D Fab-Fc; Stressed and control samples of the stability studies are the same molecule; also called AB0237
What is called Kd is the constant that tells how readily two partners part at equilibrium. Low values mean a tighter complex, high ones a looser complex. One may read the koff as a measure of how fast the partners let go of each other. Broadly, the kon is the rate constant with which the complex forms. Higher therefore signals fast association. As to B1, in the assay with mFc-cNKG2D, the Kd is 829 nM and 828 nM and 935 nM and 719 nM. In the assay with mFc-hNKG2D [1], this molecule yielded a Kd of 790 nM, a koff of 0.153 s⁻¹ and a kon of 193000 M⁻¹ s⁻¹.

B2: AB0192 TriNKET (other)
chain: EVQLVESGGGVVQPGGSLRLSCAASGFTFNAFGMHWVRQAPGKCLEWVAFISSGSTSIYYANTVKGRFTISRDNSKNTLYLQMNSLRAEDTAVYYCARDGYPTGGAMDYWGQGTSVTVSSGGGGSGGGGSGGGGSGGGGSDIQMTQSPSSLSASVGDRVTITCKASQDIYNYLSWFQQKPGKAPKPLIYRANILVSGVPSRFSGSGSGQDYTFTISSLQPEDIATYYCLQFDAFPFTFGCGTKLEIKGSDKTHTCPPCPAPELLGGPSVFLFPPKPKDTLMISRTPEVTCVVVDVSHEDPEVKFNWYVDGVEVHNAKTKPREEQYNSTYRVVSVLTVLHQDWLNGKEYKCKVSNKALPAPIEKTISKAKGQPREPRVYTLPPCRDELTKNQVSLTCLVKGFYPSDIAVEWESNGQPENNYKTTPPVLVSDGSFTLYSKLTVDKSRWQQGNVFSCSVMHEALHNHYTQKSLSLSPG
heavy: EVQLVESGGGLVKPGGSLRLSCAASGFTFSSYSMNWVRQAPGKGLEWVSSISSSSSYIYYADSVKGRFTISRDNAKNSLYLQMNSLRAEDTAVYYCARGAPIGAAAGWFDPWGQGTLVTVSSASTKGPSVFPLAPSSKSTSGGTAALGCLVKDYFPEPVTVSWNSGALTSGVHTFPAVLQSSGLYSLSSVVTVPSSSLGTQTYICNVNHKPSNTKVDKKVEPKSCDKTHTCPPCPAPELLGGPSVFLFPPKPKDTLMISRTPEVTCVVVDVSHEDPEVKFNWYVDGVEVHNAKTKPREEQYNSTYRVVSVLTVLHQDWLNGKEYKCKVSNKALPAPIEKTISKAKGQPREPQVCTLPPSRDELTENQVSLTCLVKGFYPSDIAVEWESNGQPENNYKTTPPVLDSDGSFFLYSWLTVDKSRWQQGNVFSCSVMHEALHNHYTQKSLSLSPG
light: DIQMTQSPSSVSASVGDRVTITCRASQGISSWLAWYQQKPGKAPKLLIYAASSLQSGVPSRFSGSGSGTDFTLTISSLQPEDFATYYCQQGVSFPRTFGGGTKVEIKRTVAAPSVFIFPPSDEQLKSGTASVVCLLNNFYPREAKVQWKVDNALQSGNSQESVTEQDSKDSTYSLSSTLTLSKADYEKHKVYACEVTHQGLSSPVTKSFNRGEC
notes: the condition stands under assay; also called AB0192 Lot AB0192-005
In the case of B2, the Kd in the assay with De-glycosylated CLEC12A is 0.27 nM; with Human CD16a V158, 162 nM; with mFc-hNKG2D [2], 612 nM; with Human CD32a R131, 1380 nM and 1290 nM and 1800 nM and 1130 nM; with Human CD32a H131, 1040 nM and 921 nM and 1070 nM and 1020 nM; with mFc-hNKG2D [3], 770 nM and 783 nM and 788 nM. Moreover, the koff came out at 0.000348 s⁻¹ with De-glycosylated CLEC12A, 0.0192 s⁻¹ in the assay with Human CD16a V158 and 0.119 s⁻¹ with mFc-hNKG2D [2]. Further, the kon with De-glycosylated CLEC12A amounted to 1.31e+06 M⁻¹ s⁻¹; in the assay with Human CD16a V158, 119000 M⁻¹ s⁻¹; in the assay with mFc-hNKG2D [2], 195000 M⁻¹ s⁻¹.
